Experimental data taken from patent US20240115742A1, “FLUORINATED FIBERS FOR MULTIMODAL 1H AND 19F MRI, ULTRASOUND, FLUORESCENCE DETECTION AND CONFORMATIONAL AND TEMPERATURE DETECTION BY 19F MRS” (New York University, priority 2022, published 2024).
Like-named read-outs stand apart in the source and are kept apart here. Square brackets hold non-standard residues; d marks the D form. Ends that are not written are not given here. LTF = trifluoroleucine

Experiments:
TEM of protein fibers = format: physicochemical; conditions: fibers, 50 mM NaH2PO4 pH 4.0
Protocol: (§1) Transmission Electron Microscopy. Transmission electron microscopy (TEM) images were taken with a FEI Talos L120C transmission electron microscope. Protein fiber samples were diluted to 50 μM and 3 μL was spotted on Formvar/carbon-coated copper grids followed by 5 μL wash with water, and 3 μL staining with 1% v/v uranyl acetate solution each with incubation times of 1 min at RT. Fibrils were sized in ImageJ software (Version 1.52q).
as §1, with “Samples” for “Protein fiber samples”, “by a” for “by”, “min. Between steps, filter paper was used to wick the grids. Following imaging, fibrils” for “min at RT. Fibrils”

[1] = Confocal microscopy of CCM-bound fibers; format: physicochemical; conditions: 50 μM protein saturated with CCM, pH 4.0
Protocol: Confocal Microscopy. Protein bound to CCM was studied by measuring 50 μM protein samples saturated with CCM as determined by fluorescent spectroscopic drug binding with a final 1% v/v DMSO (or 2×Kd). 10 μL of protein was added to a micro slide and a 22×22 mm #1 microscope cover glass. Slides were inverted and imaged using a Leica TCS SP8 X Laser Confocal Microscope using a dry 10× objective at RT. CCM was excited using a 460 nm line of the laser, and images were taken using a 470 to 550 nm detection window.
Confocal Microscopy. Q2LTF was diluted to 50 μM and saturated with 40 μM of curcumin (solubilized in DMSO) as determined by the binding affinity in drug-binding experiments. […] 5 μL of sample was deposited onto a microslide and covered with a 22×22 mm #1 microscope cover glass. Images were taken with a Leica TCS SP8 X laser confocal microscope using a dry 10× objective at RT. Samples were excited at 460 nm and images were taken with a 470-550 nm detection window.

[2] = ATR-FTIR peak deconvolution of secondary structure; format: physicochemical
Protocol: Attenuated Total Reflectance-Fourier Transform Infrared Spectroscopy. Secondary structure of protein fiber variants was confirmed using attenuated total reflectance-Fourier transform infrared (ATR-FTIR) spectroscopy using the Nicolet 6700 Fourier Transform Infrared Spectrometer equipped with a diamond ATR accessory and a mercury cadmium telluride (MCT)-A detector. Spectra were collected for 5 μL of 500 μM protein from 4000-400 cm^−1 with 0.5 cm^−1 increments at room temperature (RT). For CCM bound protein, protein was bound at a final concentration of 500 μM and saturated with CCM as determined by fluorescent spectroscopic drug binding with a final 1% v/v DMSO. Sample spectra were normalized using buffer background and analyzed from 1700-1600 cm^−1 corresponding to the amide I region. Peaks were deconvoluted using Gaussian functions in PeakFit software until the goodness of fit reached r^2≥0.99. Peaks were associated with secondary structure were determined by methods known in the art.
(§2) Attenuated Total Reflectance-Fourier Transform Infrared Spectroscopy. Secondary structure of Q2 protein was confirmed using attenuated total reflectance-Fourier transform infrared (ATR-FTIR) spectroscopy using the Nicolet 6700 Fourier Transform Infrared Spectrometer equipped with a diamond ATR accessory and a mercury cadmium telluride (MCT)-A detector. Spectra were collected for 5 μL of 2 mM protein from 4000-400 cm^−1 with 0.5 cm^−1 increments. Sample spectra were normalized using buffer background and analyzed from 1700-1600 cm^−1 corresponding to the amide I region. Peaks were deconvoluted using Gaussian functions in PeakFit software until the goodness of fit reached r^2>0.99.
as §2, with “of Q2LTF and QLTF” for “of Q2”, “using a” for “using the”, “of 1” for “of 2”, “with 4.0” for “with 0.5”, “reached r^2≥0.99.” for “reached r^2>0.99.”
Attenuated Total Reflectance-Fourier Transform Infrared Spectroscopy. Secondary structure before (solution) and after gelation (gel) was also assessed by peak deconvolution of attenuated total reflectance-Fourier transform infrared (ATR-FTIR) spectra. ATR-FTIR measurements were performed using a Nicolet 6700 Fourier Transform Infrared Spectrometer equipped with a mercury cadmium telluride (MCT)-A detector. Spectra were collected for 5 μL samples of protein at 2 mM from 4000-400 cm^−1 with a 4.0 cm^−1 resolution, normalized, and buffer-subtracted prior to analysis from 1700-1600 cm^−1, corresponding to the amide I region. ATR-FTIR measurements were performed immediately after concentration to 2 mM for solution measurements and after. Peaks were deconvoluted using Gaussian functions in PeakFit software until the goodness of fit reached r^2≥0.99.

[3] = CD temperature scans (melting temperature); format: physicochemical
Protocol: Circular Dichroism Spectroscopy. Secondary structure was first assessed using the Jasco J-815 CD spectrometer with a PTC-423S single position Peltier temperature control system. Wavelength scans were performed from 190 to 250 nm using 15 μM samples at 1 nm step sizes at 25° C. Temperature scans were performed at α-helical minimum 222 nm from 20 to 85° C. The mean residue ellipticity (MRE) was calculated as described previously. MRE at 222 nm and 208 nm and their ratios were used to assess relative helicity.
Circular Dichroism Spectroscopy. The secondary structure of Q2LTF and QLTF was assessed using a Jasco J-815 circular dischroism (CD) spectrometer with a PTC-423S single position Peltier temperature control system. Wavelength scans were performed from 195 to 250 nm at 1 nm step sizes by diluting the protein into water (at approximately 10 μM) in order to minimize the effects of sodium chloride. […] The mean residue ellipticity (MRE) was calculated as described.

[4] = previous studies, cited from earlier work

Molecule: C2: C variant with redistributed electrostatic patches, SEQ ID NO: 22 (MRGSHHHHHHGSIEGRMQLAKHMLKELQKTNALQSVRTLLQQQVEEITQLKETVENSDSS) [Protein C2]
- average protein fiber diameter (TEM) (TEM of protein fibers): 73±18 nm
- fiber diameter after CCM binding (confocal) [1]: 6.89±2.54 μm
- aggregated strands ([2]; native): 5.3%
- antiparallel β-sheet/aggregated strands ([2]; native): 15.0%
- aggregated strands ([2]; w/CCM): 9.0%
- antiparallel β-sheet/aggregated strands ([2]; w/CCM): 4.8%
- melting temperature ([3]; CCM-bound, pH 4.0): 69.6±7.8 °C
- melting temperature ([3]; native, 50 mM NaH2PO4 pH 4.0): 49.4±1.1 °C

Molecule: QLTF: Q with leucines replaced by trifluoroleucine, SEQ ID NO: 19 (MRGSHHHHHHGSIEGRVKEITF[LTF]KNTAPQM[LTF]RE[LTF]QETNAA[LTF]QDVRE[LTF][LTF]RQQSK[LTF]; ends and bridges not checked) [reference compound]
- aggregated strands ([2]; fluorinated constructs, Tris buffer): 17.4 % composition
- melting temperature [4]: 52 °C

B1: C: cartilage oligomeric matrix protein coiled-coil with His tag, SEQ ID NO: 21 (protein)
chain: MRGSHHHHHHGSIEGRAPQMLRELQETNAALQDVRELLRQQVKEITFLKNTVMESDASGKL
modifications: His tag
- average protein fiber diameter (TEM) (TEM of protein fibers): 47±22 nm
- fiber diameter after CCM binding (confocal) [1]: 4.91±1.49 μm
- aggregated strands ([2]; native): 10.0%
- antiparallel β-sheet/aggregated strands ([2]; native): 11.5%
- aggregated strands ([2]; w/CCM): 20.8%
- antiparallel β-sheet/aggregated strands ([2]; w/CCM): 0.0%
- melting temperature ([3]; CCM-bound, pH 4.0): 51.8±4.3 °C
- melting temperature ([3]; native, 50 mM NaH2PO4 pH 4.0): 56.0±2.6 °C
- melting temperature ([4]; Na2HPO4 pH 8.0): 41-42 °C
